± gives the uncertainty stated by the source.

This note sets out measurements from the supplement of paper PMC12042874.

This data set can be described thus: amyloid nucleation score (Sup35N fusion, yeast selection) (log enrichment); library NNK3; higher = more nucleation; inactive = no reads after selection. In a few lines:
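The nucleation score, computed with DiMSum, is the log enrichment of output over input reads, centred on the mode score of non-aggregating sequences. Sequences with under 100 input reads were dropped. Reads were generated by Illumina sequencing of plasmid inserts from psi-negative yeast with Sup35N fused to peptides of 20 random codons, induced with 100 μM copper sulfate for 24 hours and grown 7 days at 30°C on medium lacking adenine and uracil.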
On to TNLVAIKYLFT, for which the amyloid nucleation score was -0.022 ± 0.48.
The same measure for ECATTVGNAFRRSGVQVFAM: “inactive”; for VVFENLDRAFVYRRLDPIRC: “inactive”.
The result for IPWCSPDGLVRRYHHKR reads “inactive”; that for STLVFPLKFFELCSKD, “inactive”; that for RNSSNGSVHKQVFAVELKVP, “inactive”.
MPWGTWGAS: the amyloid nucleation score entry is “inactive”.
The result for ISRFCYSSINRRGFLGNFVF reads “inactive”.
For MCMYVKMYLNGSLFVYMTSK, the amyloid nucleation score result is “inactive”.
The same measure for MGLLSTFFVEFFKT: “inactive”.
As to WNFNRVYHFLTIEMF, the amyloid nucleation score entry is “inactive”.
The result for NAVSDTGRKRECFRADRFLS reads “inactive”.
The result for PSYLKTFRDVLMTVSMYFVC reads “inactive”; that for MLNLRCSKCGMMPLRNRIVS, “inactive”; that for LGSLVLLRFWY, -0.181 ± 1.4.
The same measure for FFCSGS: “inactive”.
Regarding SALLKWYRYTSAWSGNDVAA, the amyloid nucleation score result is “inactive”.
The result for LYRVLSYDLRLDKWCYKTLW reads “inactive”; that for NLPTLRVVDILCLCFYRIPS, “inactive”.
Take SEHMNGWHHNLTQCEENFRN: the amyloid nucleation score result was “inactive”.
The result for IFLIPYA reads “inactive”; that for WLCCNKTETPQSTRRWQEDD, “inactive”; that for VIFFSRSAYYKVISGRVI, “inactive”.
The result for ELISRMSFRSLCLAFFISVC reads “inactive”; that for AFSDGTLSLTSKVRLGDS, “inactive”; that for IVHCWLMSGASVWTLQETPN, -0.105 ± 1.4.
The same measure for DARVFKAVFRVLCDLVPASC: “inactive”.
As to NYVVSFYISSNFWYDVVNCD, the amyloid nucleation score is 0.294 ± 0.22.
The same measure for ENVPLNAAYCSL: “inactive”; for NFSPHTFVSNSM: “inactive”.
Turning to IDSNE, the amyloid nucleation score entry is “inactive”.
The same measure for KSLHTGGGLDSRYGS: “inactive”; for FSYVCFGYV: 0.337 ± 0.14.
The result for AIKYICSFSSVSVMR reads “inactive”; that for KNLKSVSFGRRYAFNSFVFL, 1.25 ± 0.11.
The result for WLCPYARFIRNRSLLFCMFW reads “inactive”.
On to IYSVVGCWKPSSVSDMAGLL, for which the amyloid nucleation score result was “inactive”.
The result for DDGGVTVVWTCGRVCIQMGN reads 0.399 ± 0.24; that for EKECRTWHHVDGSLVESCYY, “inactive”; that for FWMCVSVSARWAPTSLGFGS, “inactive”.
The result for ISFSSES reads “inactive”.
Regarding GSSDNGFFCSLNMN, the amyloid nucleation score result was “inactive”.
The same measure for MSSQVMALIRFQFHSHDSHG: 1.36 ± 0.16; for PSFGDEDTYNRDLALTLMDC: “inactive”.
The same measure for LGVPSIPGT: “inactive”; for LIKSSRLCLNRWEWAAGSGM: “inactive”; for VFNRSSAT: “inactive”.
The same measure for FSEIVDYRGGIYGSYLNESM: “inactive”; for HLLYYVCRHQQFLWMDVQVE: “inactive”; for ALSDDTDTQAANQLHGCTGW: “inactive”.
On to MINWYGRTNPLCDPGLLRGI, for which the amyloid nucleation score entry is “inactive”.
The same measure for DTGLAESQGMN: “inactive”; for WHMWVLKYIFAGLVHSSPWG: “inactive”.
The result for RVVYL reads -0.667 ± 1.8; that for IRSVKISSGYLLISYGDNNW, 0.687 ± 0.18; that for YGGDWCARTPCLSRVNSVKP, “inactive”.
The same measure for YYSMTKNARCGHSFEAKSLF: “inactive”; for EYRGKIDVYYLIGQNYSVSC: 0.621 ± 0.27; for FVDMIMKEDKFVLGQNFLRG: “inactive”.
With HYFSYIINTAMMRKAYILSG, the amyloid nucleation score is 0.543 ± 0.14.
The same measure for KTWYWVFMLAVFRFIYLNMR: “inactive”; for FNLSVINSRGQLECVLNPVK: “inactive”.
The same measure for MIFLLTSIL: “inactive”; for IRHVHLSRYSTRTDGNNQLD: “inactive”; for LTGFYYFTAYVCPNLILVTR: 0.878 ± 0.14.
The same measure for YFINKMILIDPL: “inactive”; for MVVGCCSEGV: “inactive”.
On to LHCPISYLAMSKKS, for which the amyloid nucleation score result is “inactive”.
The same measure for VFKWWM: 1.2 ± 0.16; for IAAQSRRVGRCDIASLQLLE: “inactive”; for GAVFSEWTQVRSCDCDGIDK: “inactive”.
Regarding SFFEYLPTQPTR, the amyloid nucleation score result was “inactive”.
As for PPCWLYDFVTNVNNWWYEHC, the amyloid nucleation score result is “inactive”.
The same measure for AVWNFTQFYAENEGHNVSLS: “inactive”; for ETGMLCSGYCKGVCARDDPG: “inactive”.
The result for SFRFYVERL reads “inactive”; that for SHIVFM, “inactive”; that for KSNSSLTRRARYETSTSSSP, “inactive”.
Take IYNTGHSSRYLRTPVFAWSE: the amyloid nucleation score result is “inactive”.
The same measure for HSCMCKSLNASLMVDVRLPR: “inactive”; for CLCNRDRLSSNFGGMTDKLH: “inactive”.
The result for YRMSR reads 1.36 ± 0.1; that for YGTSATKRTALFWYDMTKFG, “inactive”; that for VHFLILETFKQNMWGYDLTL, “inactive”.
Regarding DIVILSTSASSTS, the amyloid nucleation score result was “inactive”.
The result for TMHKGLVVMF reads “inactive”; that for TIRYRIQVNSCHESVIAGYT, “inactive”; that for MGPSVMFCIDLSSWKHLIRL, 0.87 ± 0.16.
NNPLLIRDLHLTKVDISAVC: the amyloid nucleation score entry was “inactive”.
The result for SRVSPMFKIRIWNWIPAWAT reads “inactive”.
For IQFPDQ, the amyloid nucleation score result was “inactive”.
The same measure for WLVRMN: “inactive”; for LNYMSDFYLLLSERTCVYYQ: 0.754 ± 0.16; for INYGTRQCVVQCIIVVCSLG: 2.17 ± 0.068.
YISSFRGDIVIY: the amyloid nucleation score result is “inactive”.
The same measure for ASRAESVVGSFFCFFL: 2.17 ± 0.087; for CCVGYFYGLEV: 2.06 ± 0.064; for SGHSAFGKKGLRGM: “inactive”.
The result for TRVTS reads “inactive”.
The same measure for GGLQTERFLWRC: 0.13 ± 0.63.
On to TPCYRFNSRYRMTFM, for which the amyloid nucleation score entry was “inactive”.
Take VTQSQRKASFMVCSYSTITR: the amyloid nucleation score entry is “inactive”.
For IPVQFFVQIRSGIVHFWHER, the amyloid nucleation score stood at 1.81 ± 0.11.
The result for CHFPG reads “inactive”.
The same measure for YIQSNCEFMHPVCIIIFACV: 1.16 ± 0.11; for TGDRIWTIGFFGEPNGVLKG: “inactive”; for FLHILGHVNLFTSLREDLSL: “inactive”.
The result for INITLWWVTVEFNMSARVQI reads “inactive”; that for WDNWSTIRWTVYALSRKSAR, “inactive”; that for APLSNFALHIPEELRLESSF, 0.176 ± 0.77.
With PVFFM, the amyloid nucleation score result is “inactive”.
The result for PCHHFFFA reads “inactive”; that for LMKSMSNLLYADLKEYSQVG, “inactive”.
The result for AIKYILRAALNLNSSSTELE reads “inactive”.
The result for QHTAFLRKVSPSLRG reads “inactive”.
In the case of RPSCMFCPSHAMARLPPVGS, the amyloid nucleation score entry is “inactive”.
Take NIKGFRVDKYVETL: the amyloid nucleation score result is “inactive”.
The same measure for MSFWY: “inactive”; for MRIRIPTSNNEGYPIFMSAL: “inactive”; for NLPVF: “inactive”.
The result for YCTFDVCGFSSASSEGFNTA reads 0.465 ± 0.32.
Regarding LSGKWNKMVCRLVTSKLIFE, the amyloid nucleation score result was “inactive”.
The result for CGNHASVWRIGTVRKD reads “inactive”.
The result for ALFVGFRF reads 1.55 ± 0.12.
The result for SAIYLYKYCPSNIITRTLVP reads “inactive”; that for CDRLYSNLLRVAAMAPKASW, “inactive”.
With PYVECSWEAQG, the amyloid nucleation score result is “inactive”.
For YFSFFQRVLWYRCAASFNLQ, the amyloid nucleation score was -0.106 ± 0.63.
The same measure for ARPNGTTKCVDNGRKPVRII: “inactive”; for ICGMWGFDAMRITSWNVPNG: 0.075 ± 0.29; for FCCLEWNFIFNTSGHVSNNV: 3.31 ± 0.079.
The same measure for FKRYY: “inactive”.
